Assay results: article PMC10730906

Target: purified TslA lipase domain (N-terminal domain of SAOUHSC_00406) (S. aureus) (UniProt Q2G0W8)
Test: ITC; 30 uM TslA in the cell, 300 uM TilA in the syringe; 20 mM HEPES pH 7.5, 150 mM NaCl, 25 °C; Microcal PEAQ-ITC

B1: purified TilA lacking its signal sequence, His tag removed (SAOUHSC_00405) (natural protein)
chain: CGNMKDEQKKEEQTNKTDSKEEQIKKSFAKTLDMYPIKNLEDLYDKEGYRDGEFKKGDKGTWTILTGFSKSNKPGVLDDEGMVLYLNRNTKKATGYYFVNKVYDDISKNHNEKKYRVELKNNKIVLLDNVEDKKLKQKIENFKFFSQYADFKDLKNYQDGNITTNENVPSYEAQYKMNNSDKNVKKLREIYPITTNNSPNLKLYIDGDIKGSSVGYKKIEYKFSKDKGQETTLRDYLNFGPSEGENVE
Kd: 14.2 nM | dH: -20.5 kcal/mol | stoichiometry N: 0.88
